From patent US20160264684A1, “GLYCAN-INTERACTING COMPOUNDS AND METHODS OF USE” (SIAMAB THERAPEUTICS, INC., priority 2013, published 2016) come the findings set out here.

As a reminder, the EC50 is the concentration needed to bring the measured effect to its halfway point.

Format in all cases: binding
Experiment [1] is described as follows: Glycan microarray analysis, AcSTn. On the procedure:
(§1) Optimized glycan arrays comprise 71 chemically synthesized and well-defined glycans, most of which comprise Neu5Ac and Neu5Gc glycan pairs.
(§2) 300 ml of epoxy blocking buffer is prepared by combining 15 ml of 2 M Tris buffer (pH 8) with 0.9 ml of 16.6 M ethanolamine and 284.1 ml of distilled water. The solution is filtered using a 0.2 μM nitrocellulose membrane. The epoxy buffer solution as well as 1 L of distilled water are pre-warmed to 50° C. Glass slides are arranged in a slide holder and quickly submerged in a staining tub with the warmed epoxy blocking buffer. Slides are incubated in the epoxy blocking buffer for 1 hour at 50° C. with periodic shaking to deactivate epoxy binding sites. Next, slides are rinsed and blocked with PBS with 1% OVA at 25° C. for one hour. Serum samples are diluted 1:1000 in PBS with 1% OVA and added to the glycan array for one hour at 25° C. After extensive washing, binding of polyclonal serum antibodies are detected by incubating glycan microarray slides with Cy3-conjugated anti-mouse IgG (Jackson Immunoresearch, West Grove, Pa.) for one hour. […]
(§3) 18D2 and 18C7 clones were expanded and binding properties of these hybridomas were determined by glycan microarray analysis according to Example 4. […] No binding to Tn antigen or other glycans was detected.

Experiment [2] in a line: Glycan microarray analysis, GcSTn. On the procedure: as §1, §2, §3
Experiment [3] is described as follows: Glycan microarray analysis, 9-O-acetylated AcSTn. The method, then:
as §1, §2, §3

A short description of experiment [4]: Glycan microarray analysis, 9-O-acetylated GcSTn. On the procedure: as §1, §2, §3
Experiment [5] can be described thus: Glycan array STn specificity and anti-STn antibody group. Also noted: key to Group: Group 1 antibodies according to the invention are antibodies capable of binding AcSTn and GcSTn; Antibodies were assigned to Group 2 based on their ability to bind STn as well as some related structures that include an O-linkage to serine or threonine; Group 3 antibodies are antibodies capable of binding STn, but may also bind a broader set of related structures; Group 4 antibodies are capable of binding to both AcSTn and GcSTn as well as the un-sialylated Tn antigen. The method, then: as §1
300 ml of epoxy blocking buffer is prepared by combining 15 ml of 2 M Tris buffer (pH 8) with 0.9 ml of 16.6 M ethanolamine and 284.1 ml of distilled water. The solution is filtered using a […] nitrocellulose membrane. The epoxy buffer solution as well as 1 L of distilled water are pre-warmed to 50° C. Glass slides are arranged in a slide holder and quickly submerged in a staining tub with the warmed epoxy blocking buffer. Slides are incubated in the epoxy blocking buffer for 1 hour at 50° C. with periodic shaking to deactivate epoxy binding sites. Next, slides are rinsed and blocked with PBS with 1% OVA at 25° C. for one hour. Serum samples are diluted 1:1000 in PBS with 1% OVA and added to the glycan array for one hour at 25° C. After extensive washing, binding of polyclonal serum antibodies are detected by incubating glycan microarray slides with Cy3-conjugated anti-mouse IgG (Jackson Immunoresearch, West Grove, Pa.) for one hour. Slides are then washed extensively, dried and scanned with a Genepix 4000B scanner (Laser at 100%; gain at 350; 10 μm pixels). Raw data from scanned images are extracted using the Genepix software and analysis of raw data is carried out.
Based on characterization data, anti-STn antibodies developed from Group 6 and Group 8 mice were categorized by anti-STn group number. In some cases, antibodies were assigned to Group 1. Group 1 antibodies according to the invention are antibodies capable of binding AcSTn and GcSTn. Such antibodies may have the ability to associate with a wider range of STn structures. The large oval in FIG. 1A indicates the portion of STn recognized by Group 1 antibodies. […] Also listed in the Table is the antibody Isotype for each antibody as determined by the IsoStrip mouse monoclonal antibody isotyping kit (Roche Diagnostics GmbH, Manheim, Germany).

The next experiment in a line: AcSTn-PAA ELISA. The settings on record: 200 ng/well PAA antigen; 1:5 dilutions from 1 μM. The method, then: (§4) Anti-STn serum titer is determined using a murine anti-STn bovine submaxillary mucin (BSM) ELISA together with serum profiles observed by glycan microarray. 96-well plates are coated with 1 μg/well of BSM and incubated overnight at 4° C. O-acetylation of BSM antigen is removed by treating wells with 0.1 M sodium hydroxide. Specific binding to STn is determined by treatment of wells with sodium periodate. Periodate treatment destroys the C6 side chain of sialic acid; therefore antibodies raised against STn should not bind to periodate-treated wells. Wells are blocked with PBS 1% ovalbumin (OVA). Serum samples to be assayed are serially diluted in PBS 1% OVA. […] Detection of anti-STn antibodies present in serum is determined using an HRP-conjugated polyclonal goat anti-mouse IgG antibody (Jackson Immunoresearch, West Grove, Pa.). […] Optical densities are measured at 490 nm using a Spectramax microplate reader (Molecular Devices, Sunnyvale, Calif.). The serum titer is obtained by comparison of OD values with a cutoff value calculated as two standard deviations above the mean of optical density values of the negative control. […]
(§5) 18D2 and 18C7 antibodies were further characterized by ELISA comprising antigens other than BSM. […] Binding of anti-STn antibodies was detected using a goat anti-mouse IgG-HRP conjugated antibody (Jackson Immunoresearch Laboratories, West Grove, Pa.). […]
(In general: An ELISA detects its analyte on a solid surface through an enzyme-linked reagent.)

The nature of another experiment: GcSTn-PAA ELISA. Conditions: 200 ng/well PAA antigen; 1:5 dilutions from 1 μM. The method, then: as §4, §5

B1: 18D2: anti-STn monoclonal antibody from mouse #4436; IgG2b κ; heavy chain SEQ ID NO 1, light chains SEQ ID NO 2 and 3 (antibody, V domains shown)
VH: QVTLKESGPGILQPSQTLSLTCSFSGFSLSTSNMGIGWIRQPSGKGLEWLAHIWWHDDKYYNPSLKSRLTISKDISNNQVFLKITSVDTADTATYYCAQVPFYYGTSFDVWGTGTTVTVSS
VL 1: DIVMTQSPATLSVTPGDRVSLSCRASQSISDYLHWYQQKSHESPRLLIKYASQSISGIPSRFSGSGSGSDFTLSINSVEPEDVGVYYCQNGHSFPLTFGAGTKLELK
VL 2: QIVLTQSPAIMSASPGETVTMTCSASSSITYMHWYQQKPGTSPKRWIYDTSKLASGVPARFSGSGSGTSYSLTISSMEAEDAATYYCHQRSSYTFGGGTKLEIKR
B1: the “Glycan Array AcSTn” value in experiment [1] came out at 50%. Besides, the “mean fluorescence intensity, AcSTn” value in experiment [1] (glycan microarray) is “about 16,000”. For the same molecule, the “Glycan Array GcSTn” value in experiment [2] was determined as 50%. Also, the “mean fluorescence intensity, GcSTn” value in experiment [2] (glycan microarray) is reported as “about 7,000”. In addition, the “mean fluorescence intensity, Neu5,9Ac2-α2,6-GalNAc” value in experiment [3] is listed as “about 4,500”. In addition, the “mean fluorescence intensity, Neu5,9Ac5Gc-α2,6-GalNAc” value in experiment [4] is recorded as “about 4,000”. In experiment [5], the “Glycan Array STn Specificity” value turned out to be 100%. This molecule also registered a Group in experiment [5] (assigned from flow cytometry and glycan array analysis) of 1. Moreover, the EC50 is 1.71 nM in the experiment “AcSTn-PAA ELISA” and 1.57 nM in the experiment “GcSTn-PAA ELISA”.
